Results as given in US20240316099A1.

Target: NKG2D ligands
Test: cell-based or functional assay

lysis of autologous immature dendritic cells, E:T ratio of 20:1: 4.2%
B1: chimeric NKG2D receptor (NKG2D.ζ), expressed on primary human NK cells (receptor)
chain: MRVKFSRSAEPPAYQQGQNQLYNELNLGRREEYDVLDKRRGRDPEMGGKPRRKNPQEGLYNELQKDKMAEAYSEIGMKGERRRGKGHDGLYQGLSTATKDTYDALHMQALPPRGWIRGRRSRHSWEMSEFHNYNLDLKKSDFSTRWQKQRCPVVKSKCRENASPFFFCCFIAVAMGIRFIIMVAIWSAVFLNSLFNQEVQIPLTESYCGPCPKNWICYKNNCYQFFDESKNWYESQASCMSQNASLLKVYSKEDQDLLKLVKSYHWMGLVHIPTNGSWQWEDGSILSPNLLTIIEMQKGDCALYASSFKGYIENCSTPNTYICMQRTV
cytotoxicity against autologous MDSCs, 4-hour chromium-release assay, E:T ratio of 5:1: 35%
cytotoxicity against wild-type K562 in a 4-hour cytotoxicity assay, 2:1 E:T ratio: 79.2%
